# Assay: soluble on expression in E. coli; label from the status in PepcDB or PDB records
row,Sequence,soluble on expression in E. coli
1,MSLTLPELFTSVFSHFKGQPDKAPIARKINGAYSPISYDSLAEDCRHFAAYLKERGIEPGDRVAILSENRPGWYLADIAILSLGATDVPLYPSLPPNQIEYILNNCSAKGIIVSNMLQLGKILSIWPKLPELNMVIVMNKLDEPVEDVIDLSQAKTEGKKVLEAKPWLLDGIKSNPDDVATLIYTSGTTGLPKGVMLTHRNICENVKSCSTVIRIDQTDSSLSFLPLSHAYERTGGYYLMFACGARINLAESVETISLNISEAKPTIIFTVPRLFDRMKASILKSVTSEGGVKEKIFFWAVSTGEKYHKQLATGKVSPLLAVQHNLADKLVYSKIRKKFGGKLRYFVSGGAALPQKTGEFFQSIGITILEGFGLTETSPVTNVNRPEKVKFGTVGLPVKNVEVKIAPDGEIMLKGPNIMKGYWKDEAASAEVLRDGWLYTGDIGEVDSEGYLKITDRKKHIIVTSGGKNIAPLQIENLILDSPYVDQAMIVGEKRPFLIALIVPDFLKLRDFAAEHQIKASSTKELINTKEVIEVYEKLLKSISRQLATHEKVRKFLLLEEPFSIENGMMTPTLKLKRKEITTKFSAEIDNLYNTLNMVYNTEGHHHHHH,not soluble
2,MDSYGYVETLGLVTAIEAADAALKAANVTLMNCYYVKGGIVTIEVAGDVSAVTAAVDAATESAKRLGNFLSSNVIARIDSETKKILISDLGNKEKKQKIENKSVVKDTTIEKKATEKISTEEITEEIINESKNENFDEEQNKEINEKVTEIAEVYEKVENPAEKLDQNNDIQEKIEVFEIEVEKEDDEAEKLKKQYQGMKVIDLKKMVNSCKLGYTWNQIKTMPKKKLIEILIKNNKEEAQWQH,not soluble
3,MGHHHHHHSHMEKIKIIVASDSIGETAELVARAGISQFNPKQCKNELLRYPYIESFEDVDEVIQVAKDTNAIIVYTLIKPEMKQYMSEKVAEFQLKSVDIMGPLMDLLSASVEEKPYNEPGIVHRLDDAYFKKIDAIEFAVKYDDGKDPKGLPKADIVLLGISRTSKTPLSQYLAHKSYKVMNVPIVPEVTPPDGLYDIDPKKCIALKISEEKLNRIRKERLKQLGLGDTARYATEARIQEELNYFEEIVSEIGCPVIDVSQKAIEETANDIIHYIEQNKSK,soluble
4,SAALTAEHFVALQSLLKASSKDVVRQLCQESFSSSCLDSESLLDKTCSSLSVPQGEAAQLLQALHHFTRLVAFRDLSSAEAILALFPENFHQNLKNLLTKIIVEHISTWRAEAQANQISLPRLVDLDWRVDIKTSSDNISRMAVPTCLLQMKIQEDPSLCGEKPSISAVTMELSKETLDTMLDGLGRIRDQLSAVANK,soluble
5,MGSSHHHHHHSSGLVPRGSHMTPDDIAGFYAKRADLDLDNYIELDFDFECAGDPHEAAAHLCSEQSTAQWRRVGFDEDFRPRFAAKVLELSAEPRPSGFSVPVECAARGPVHACRVTIAHPHGNFGAKIPNLLSAVCGEGVFFSPGIPLIRLQDIRFPEPYLAAFDGPRFGIAGVRERLQAFDRPIFFGVIKPNIGLPPQPFAELGYQSWTGGLDIAKDDEMLADVDWCPLAERAALLGDACRRASAETGVPKIYLANITDEVDRLTELHDVAVANGAGALLINAMPVGLSAVRMLRKHATVPLIAHFPFIAAFSRLANYGIHSRVMTRLQRLAGFDVVIMPGFGPRMMTPEHEVLDCIRACLEPMGPIKPCLPVPGGSDSAATLENVYRKVGSADFGFVPGRGVFGHPMGPAAGATSIRQAWDAIAAGIPVPDHAASHPELAAALRAFGGR,soluble
6,MAEEHHHHHHHHLEVLFQGPGRPKTHTVGSVAKVEQVKFDATSMHVKPQVAAQQKMVDDGSGEVQVWRIENLELVPVDSKWLGHFYGGDCYLLLYTYLIGEKQHYLLYVWQGSQASQDEITASAYQAVILDQKYNGEPVQIRVPMGKEPPHLMSIFKGRMVVYQGGTSRTNNLETGPSTRLFQVQGTGANNTKAFEVPARANFLNSNDVFVLKTQSCCYLWCGKGCSGDEREMAKMVADTISRTEKQVVVEGQEPANFWMALGGKAPYANTKRLQEENLVITPRLFECSNKTGRFLATEIPDFNQDDLEEDDVFLLDVWDQVFFWIGKHANEEEKKAAATTAQEYLKTHPSGRDPETPIIVVKQGHEPPTFTGWFLAWDPFKWSGIHVVPNLSPLSNN,soluble
7,VLFRQLEYFVAVAQERHFARAAEKCYVSQPALSSAIAKLERELNVTLINRGHSFEGLTREGERLVVWAKRILAEHAAFKAEVDAVRSGITGTLRLGTVPTASTTASLVLSAFCSAHPLAKVQVCSRLAATELYRRLREFELDAVIVHPETQDSDDVDLVPLYEEQYVLLSPADMLPPGTSTLVWRDAAQLPLALLTADMRDRQVIDAAFADHAVSAIPQVETDSVASLFAQVATGNWASIVPHTWLWAMPMSGPTGGEIRAVELVDPVLKAQIALATNALGPGSPVARALITCAQALALNEFFDTQLRGITRRR,not soluble
8,MVSAPPTLQDQAFRSLVRNEVLTVSDAECLIREFFPPLFKEASTQKKPKTIMILVEHWPYPCLHVGLLIDKPNFQIFQAILDGVDTWLKRKYRPRMGRLKKVDFRDAQHHASLDMQDEREGRDYLVGTLPKKQIVEDHSRTRKERLKLFHDLSFMSSLHEDKHQTLLLEWAKERTSFLHLCCEKLEIGAVEVSKVRNVLKFLQPELIKELKLNTVGNLSKLAKFVPFIRKMRNLQKLMLVRTFGTRTFTQEEKQNISKIISLFCKLSCLRHLTIDDVYFLTDQMKELLRCLEAPLVSLKITLCQLSQSDLESFAQRWNYSQLKHLCLRGVTLTNLDVTPLRDFLKRVAANLQTLDLEDCRMDDSHFRTLLPALIKCTQLTSINLYDNDISEDVLENFLHRTTNLSQLTTEMYPAPSEVYNESNYVIVEIFIQICSELMNKLMEVRQANSVCFGSSSCYDCDNRYLYEDDGDVTLCLCQE,not soluble
9,MAKESVKILQGKLDVKSLIDQLNAALSEEWLAYYQYWVGALVVEGAMRADVQGEFEEHAEEERHHAQLIADRIIELEGVPVLDPKKWFELARCKYDSPTAFDSVSLLNQNVSSERCAILRYQEIANFTNGKDYTTCDIAKHILAEEEEHEQDLQDYLTDIARMKESFLKK,soluble
10,GTTKHSKLLILGSGPAGYTAAVYAARANLQPVLITGMEKGGQLTTTTEVENWPGDPNDLTGPLLMERMHEHATKFETEIIFDHINKVDLQNRPFRLNGDNGEYTCDALIIATGASARYLGLPSEEAFKGRGVSACATCDGFFYRNQKVAVIGGGNTAVEEALYLSNIASEVHLIHRRDGFRAEKILIKRLMDKVENGNIILHTNRTLEEVTGDQMGVTGVRLRDTQNSDNIESLDVAGLFVAIGHSPNTAIFEGQLELENGYIKVQSGIHGNATQTSIPGVFAAGDVMDHIYRQAITSAGTGCMAALDAERYLDGLADAK,soluble
11,MGDLIAITYHSNALQSERQMYVWTPPGYTGMGEPLPVLYFYHGFGDTGRSAIDQGRIPQIMDNLLAEGKIKPMLVVIPDTETDAKGIIPEDFVPQERRKVFYPLNAKAADRELMNDIIPLISKRFSVRKDADGRALAGLSQGGYQALVSGMNHLESFGWLATFSGVTTTTVPDEGVAARLNDPAAINQQLRNFTVVVGDKDVVTGKDIAGLKTELEQKKIKFDYQEYPGLNHEMDVWRPAYAAFVQKFKIRHLEHHHHHH,not soluble
12,LMKLYSLSVFYKGEPKAVLLKAAYDVSSFSFFQRSSVQEFMTFTSQLIVERSAKGSRASVKEQEYLCHVYVRSDSLAGVVIADSEYPSRVAFTLLEKVLDEFSKQVDRIDWPVGSPATIHYTALDGHLSRYQNPREADPMSKVQAELDETKIILHNTMESLLERGEKLDDLVSKSEVLGTQSKAFYKTARKQNSCCAIM,soluble
13,MTEQPAVAAPYDVLFEPVQIGPFTTKNRFYQVPHCNGMGYRDPSAQASMRKIKAEGGWSAVCTEQVEIHATSDIAPFIELRIWDDQDLPALKRIADAIHEGGGLAGIELAHNGMNAPNQLSRETPLGPGHLPVAPDTIAPIQARAMTKQDIDDLRRWHRNAVRRSIEAGYDIVYVYGAHGYSGVHHFLSKRYNQRTDEYGGSLENRMRLLRELLEDTLDECAGRAAVACRITVEEEIDGGITREDIEGVLRELGELPDLWDFAMGSWEGDSVTSRFAPEGRQEEFVAGLKKLTTKPVVGVGRFTSPDAMVRQIKAGILDLIGAARPSIADPFLPNKIRDGRLNLIRECIGCNICVSGDLTMSPIRCTQNPSMGEEWRRGWHPERIRAKESDARVLVVGAGPSGLEAARALGVRGYDVVLAEAGRDLGGRVTQESALPGLSAWGRVKEYREAVLAELPNVEIYRESPMTGDDIVEFGFEHVITATGATWRTDGVARFHTTALPIAEGMQVLGPDDLFAGRLPDGKKVVVYDDDHYYLGGVVAELLAQKGYEVSIVTPGAQVSSWTNNTFEVNRIQRRLIENGVARVTDHAVVAVGAGGVTVRDTYASIERELECDAVVMVTARLPREELYLDLVARRDAGEIASVRGIGDAWAPGTIAAAVWSGRRAAEEFDAVLPSNDEVPFRREVTQLA,soluble
14,MGSDKIHHHHHHDEINKDHNHTTAVPAKMILTDVMTSTAFSVVSGDFNLYGGMYVEHETGSHNQFYYAETRSSCTSASTFNNSWGGTYSTLKDALISVKVAEEEQNFITKGIAELFVAYNLAILTDMYGDTPWKEACDYTVSMTPAIDKQEEIYKDIMAYVDAAIEDLQKPDLTSLSNQDLIYKGDASAWLKTAYGLKARYTMRLMGRSADVKGDMEKVLDYISKSYTSAAEQCSYAMYGVGVNINPFFGVFYSRLGEVASRSMFDKLNERNDPRIRRCYVEANSQTMIASKDDPLLNLAHNGDLVQSQLEYTVSMFCAAQTAPTHILSYHEVLFLKAEALCRLNRKDEAKAVLKEAVVAGMANMEVNIKSALASDYWGGFLNVTNEVTPEEAASYFDENVVPLFDANPLKETMIQKYISFWNADGESTECYNDVRRLKSLGEDIYGLQNPGKFPLRCPYGNDDTTTNPNIQAAYGDGQYVFTENVWWAGGTR,not soluble
15,MGSDKIHHHHHHMIINRSKDSSSNEISFVSKDMGFLLTQSEVSYNFKDKLVEDIAKQVFAENRLSVGTIAKTNVKYTKMFIGVNGYDTIMSAYTEASKKTKKKYMIEANLDKFNVIEKGTVTLSVMFEEGFNIINTTFSESMENVKNKVIVVDQYGSKISEKIDNEIFKEVNVIMQKVIQQQENQDVDIDSEFNGIEKSCSLKGYGDVSCITGRGVKVKDSYTKLVGLFYIDTDKHTWQNGEYQIELELNFQNLMDEKSAGQDEPKEESNLGGEDYAGGKEFTAEFTAYCPRKEEGGDTDCRKKKLDPSKKTCAAPMVGKYEQTYYTKEFLNKHPLLNYGDEIQVITGVSGRDGVYKVNDVGPAITIEKNGTYHIDILFGNVEEASKFGRRKGKIIIGGYSGNVSDKAKIVISEAKKHLGKPYKWGGNGPSSFDCSGLMVYCFKKVNVSLPRTSNQQSKKGKKVEQKNLQAGDLVFFHNPVSHVGLYIGNGEFLHAPQKGDVVKISKLSSRRDFNTARRVL,not soluble
16,MSLTGTDFHVGIVGLGSMGMGAARSCLRAGLSTWGADLNPQACANLLAEGACGAAASAREFAGVVDALVILVVNAAQVRQVLFGEDGVAHLMKPGSAVMVSSTISSADAQEIAAALTALNLNMLDAPVSGGAVKAAQGEMTVMASGSEAAFTRLKPVLDAVASNVYRISDTPGAGSTVKIIHQLLAGVHIAAAAEAMALAARAGIPLDVMYDVVTHAAGNSWMFENRMQHVVDGDYTPRSAVDIFVKDLGLVADTAKALRFPLPLASTALNMFTSASNAGYGKEDDSAVIKIFSGITLPGVTPEEGHHHHHH,soluble
17,MAHHHHHHMLLFKRPHLRACESHADIAVDLAPLSQLRNYAEFEELLREELQKIYGNAPAEFHGVITYSTRDAPQSFRGCFTERQLETLHQYDAAVEKINHLSSEYRVALEEHERLVEGNKDRKPTQKRIREEEKSRKRLRAMKREVVAAEYNKECLSLKLKNLFSIDVIRVPLH,soluble
18,RMPGLPDIAFTGDGQMTKHEIRALTLCALAPAAGELLWDVGGGSGTVAIEWMRTHPLCRAVTFERSAARVDQIESNAAALGVPSLAVFGDAPAAFEDVPPELSTPDAIFVGGGVTQDGLLDECWSRLRVGGRMVVNAVTAESEALLLQWFSNCGGQLRKFQVYRGEPLGGFTAWRPQLPVAQWSVTKQSKGDAA,not soluble

# Source: the DeepSol protein solubility set
